Sequences and labels used below:
B1: Rhodobacter sphaeroides form I rubisco large subunit (natural protein, UniProt P27997 1-486, looked up)
chain: MDTKTTEIKGKERYKAGVLKYAQMGYWDGDYVPKDTDVLALFRITPQEGVDPVEAAAAVAGESSTATWTVVWTDRLTACDSYRAKAYRVEPVPGTPGQYFCYVAYDLILFEEGSIANLTASIIGNVFSFKPLKAARLEDMRFPVAYVKTYKGPPTGIVGERERLDKFGKPLLGATTKPKLGLSGKNYGRVVYEGLKGGLDFMKDDENINSQPFMHWRDRFLYVMEAVNLASAQTGEVKGHYLNITAGTMEEMYRRAEFAKSLGSVIVMVDLIIGYTAIQSISEWCRQNDMILHMHRAGHGTYTRQKNHGISFRVIAKWLRLAGVDHLHCGTAVGKLEGDPLTVQGYYNVCREPFNTVDLPRGIFFEQDWADLRKVMPVASGGIHAGQMHQLLSLFGDDVVLQFGGGTIGHPMGIQAGATANRVALEAMVLARNEGRNIDVEGPEILRAAAKWCKPLEAALDTWGNITFNYTSTDTSDFVPTASVAM
notes: form I rubisco large subunit of Rhodobacter sphaeroides; also called large subunit of RsLS
B3: Acidithiobacillus ferrooxidans CbbQ2 (natural protein, UniProt B7J5E4 1-272, looked up)
chain: MTATDSSILNQYLVGKEPFYQPQHDEVALFEAAYRKRLPVMVKGPTGCGKSRFVEFMAWRLGKPLVTVACNEDMTAADLVGRWLLDKDGTRWQDGPLTVAARYGAICYLDEIVEARQDTTVVIHPLTDHRRTLPLDKKGELIRAHPDFQLVISYNPGYQSLMKDLKQSTKQRFTGFEFDYPNAELEAGILVQETGVAPSIAAQLVTVAATARRLKGHGLDEGISTRLLVYAAMLMDDGVAPRAACRMALVQPITDDADIRATLEHAIDMTFA
notes: MoxR-type AAA+ protein CbbQ2 of Acidithiobacillus ferrooxidans ATCC 23270, locus AFE_2156; native N terminus after cleavage of His6-ubiquitin; also called AfQ2; AfCbbQ2; not shown: His6, N-terminal, cleaved; ubiquitin, N-terminal, cleaved
B9: Acidithiobacillus ferrooxidans CbbQ1 (natural protein, UniProt B7JA26 1-267, looked up)
chain: MNDQLTEYRIKKAPYYRATGDETELYEAAYSVRMPMMLKGPTGCGKTRFVEYMAYKLGKPLITVACNEDMTASDLVGRFLLDPQGTRWQDGPLTLAARLGAICYLDEVVEARQDTTVVIHPLTDNRRVLPLEKKGELVQAHPDFQLVISYNPGYQSLMKDLKQSTKQRFGALDFNYPDHEIEAEIVSHETGVNKEVADKLVSIAERARNLKGHGLDEGISTRMLVYAGSLINKGVEAKAACRVTLVRPITDDPDMRDALDAAVTTYF
notes: MoxR-type AAA+ protein CbbQ1 of Acidithiobacillus ferrooxidans ATCC 23270, locus AFE_3053; native N terminus after cleavage of His6-ubiquitin; six copies in the Q1O1 complex; alone it eluted in the void volume (likely soluble aggregates); also called AfQ1; AfCbbQ1; source: E. coli, co-expressed with CbbO1, co-purified (Ni-NTA, ubiquitin cleaved, MonoQ, Superdex 200); not shown: His6, N-terminal, …

Data set [1] deals with the molecule itself. Briefly: SEC + other: glycerol gradient sedimentation; combined Stokes radius/sedimentation analysis: Stokes radius from gel filtration, Svedberg coefficient from 5–30% glycerol gradients in buffer A (1 mg/ml, 35,000 r.p.m., 16 h, 4 °C); M=4,205 (SRs). (In general: In gel filtration, larger molecules generally elute earlier.)
The target in data set [2] is B3. Kind of data set: quantitative densitometry of SDS-PAGE; Coomassie-stained SDS–PAGE of the purified complexes (4 µg per lane), assuming equal binding of the dye. Particulars: both partners purified.
The target in data set [3] is B3. Briefly: SEC + other: glycerol gradient sedimentation; combined Stokes radius/sedimentation analysis: Stokes radius from gel filtration, Svedberg coefficient from 5–30% glycerol gradients in buffer A (1 mg/ml, 35,000 r.p.m., 16 h, 4 °C); M=4,205 (SRs). Particulars: both partners purified.
In data set [4] the target is B1. The description is as above. Particulars: both partners purified.
Data set [5] deals with B9. Kind of data set: quantitative densitometry of SDS-PAGE; Coomassie-stained SDS–PAGE of the purified complexes (4 µg per lane), assuming equal binding of the dye. Particulars: both partners purified.
Data set [6] addresses B9. Briefly: SEC + other: glycerol gradient sedimentation; combined Stokes radius/sedimentation analysis: Stokes radius from gel filtration, Svedberg coefficient from 5–30% glycerol gradients in buffer A (1 mg/ml, 35,000 r.p.m., 16 h, 4 °C); M=4,205 (SRs). Particulars: both partners purified.

By stoichiometry N is commonly meant a count of units in the complex or per binding partner. As for B1, the “stoichiometry N” value in data set [1] was 8 large subunits in the complex.

B2: Acidithiobacillus ferrooxidans CbbO2 (natural protein, UniProt B7J5E5 1-759, looked up)
chain: MTDHPRDASLPSRLAAYRKQLDCRFPRVGEVFSDCIAKASARLGPAGVSAYVDAARALCKLGRGEEPVLIFLEEWPDVGAALGDGTLEMVMQMVQFMQRTPNGNAIGGFLQSLAPVSRALLSREQLGHYLNTLRDMMERTTGSIHGHHQTHPSPGLPELLRQAPTLLQSLTVDGLRNWVDYGVRNYLHHPERQKDFFSLQSADSRAVLQRERHGTLLADVERKLDLYLRGLWQDSEVLVPYSTAFATLRTPQPYYDALGMRLPDVLDDLPGIGALDHYRAILAHMVGHRRWSTPQIADNWSPFQRLAVEFFEDARIDTLLIRTYPGLRTLFLALHPKPGEDACDPETTSCLRHRLAMLSRALLDPEHGYRNPVLHDFVDRFHGELAGGNADTATMARLALDYVTTTRRQSDQFAKVHFADTEISYRDDNRGLWRFIESGDEEEAFDAEQRKAPDLETQGLPPRHYPEWDYQSQSYRPDWVSLYEGLHASAPAATIDQLLLKHAALAKHLKRLLDLLKPQDKVRIRYQEEGSELDLDVALRSWIDFKSGSTPDPRINMSHRTAGRDIAVTLLLDLSESLNESVKTGGGDGQTVLQLSQEAVSLLAWSIEQLGDPLAIAGFNSNTRHEVRYQHIKGFSEPWGDVVKGRLAALQAGYSTRMGAAMRHAGHYLATRKADKKLMLVLTDGRPSDVDVQDDRLLIEDARQAVNELDRDGIFTYCISLDPHADAYVADIFGRQYTVIDHIARLPEKLPELFIALTR
notes: VWA-domain protein CbbO2 of Acidithiobacillus ferrooxidans ATCC 23270, locus AFE_2157; insoluble unless co-expressed with CbbQ2; also called AfCbbO2; source: E. coli, co-expressed with CbbQ2, co-purified (Ni-NTA, ubiquitin cleaved, MonoQ, Superdex 200; 5 mM MgCl2 and 5% glycerol in buffers); not shown: His6, N-terminal, cleaved; ubiquitin, N-terminal, cleaved
For the molecule B2, the entries for the “stoichiometry N” value in data set [2] and in data set [3] were 1 CbbO subunit per 6 CbbQ subunits and 1 CbbO subunit per CbbQ hexamer, respectively.

Regarding B3, the “stoichiometry N” value in data set [1] was 6 subunits in the oligomer.

B4: Rhodobacter sphaeroides form I rubisco small subunit (natural protein, UniProt P27998 1-129, looked up)
chain: MRITQGCFSFLPDLTDEQISAQVDYCLGRGWAVSLEHTDDPHPRNTYWEMWGMPMFDLRDPKGVMIELDECRKAWPGRYIRINAFDSTRGFETVTMSFIVNRPEVEPSLRMERTEVDGRSIRYTHSIVR
notes: form I rubisco small subunit of Rhodobacter sphaeroides; also called small subunit of RsLS
Turning to B4, the binding result in data set [4] is “binds”.

B5: Acidithiobacillus ferrooxidans form II rubisco (enzyme, UniProt B7J5E3 1-459, looked up)
chain: MDQSNRYADLSLKEEDLISGGKHILVAYKMKPKAGHGYLEAAAHFAAESSTGTNVEVSTTDDFTKGVDALVYHIDEATEDMRIAFPLELFDRNVTDGRMMIVSFLTLVIGNNQGMGDIEHGQMIDFFMPPRAIQLFDGPAKDISDLWRILGRPIKDGGYIAGTIIKPKLGLRPEPFAAAAYQFWLGGDFIKNDEPQGNQVFAPVKKTIPLVYDAMKRAMDETGEAKLFSMNITADDHYEMCARADFALETFGPDADKLAFLVDGFVGGPGMITTARRQYAGQYLHYHRAGHGMITSPSAKRGYTAFVLAKMSRLQGASGIHVGTMGYGKMEGGADDRNIAYMIERDSCDGPVYHQEWYGMKPTTPIISGGMNALRLPGFFENLGHGNVINTAGGGSYGHIDSPAAGAVSLRQAYECWKAGADPIEYAREHKEFARAFESFPGDADKLYPGWREKLGVHR
notes: form II rubisco (CbbM) of Acidithiobacillus ferrooxidans ATCC 23270, locus AFE_2155; native N terminus after cleavage of His6-ubiquitin; used as ECM, ER and ECMC complexes in the enzymatic assays; also called AfM; CbbM; source: E. coli BL21 (DE3), purified (Ni-NTA, ubiquitin cleaved, Mono Q, Superdex 200); not shown: His6, N-terminal, cleaved; ubiquitin, N-terminal, cleaved
On to B5, for which, in data set [1], the “stoichiometry N” value was found to be 6 subunits in the oligomer.

B6: Rhodopseudomonas palustris form II rubisco (enzyme, UniProt Q6N0W9 1-461, looked up)
chain: MDQSNRYANLNLKESELIAGGRHVLCAYIMKPKAGFGNFIQTAAHFAAESSTGTNVEVSTTDDFTRGVDALVYEVDEANSLMKIAYPIELFDRNVIDGRAMIASFLTLTIGNNQGMGDVEYAKMYDFYVPPAYLKLFDGPSTTIKDLWRVLGRPVINGGFIVGTIIKPKLGLRPQPFANACYDFWLGGDFIKNDEPQGNQVFAPFKDTVRAVADAMRRAQDKTGEAKLFSFNITADDHYEMLARGEFILETFADNADHIAFLVDGYVAGPAAVTTARRAFPKQYLHYHRAGHGAVTSPQSKRGYTAFVLSKMARLQGASGIHTGTMGFGKMEGEAADRAIAYMITEDAADGPYFHQEWLGMNPTTPIISGGMNALRMPGFFDNLGHSNLIMTAGGGAFGHVDGGAAGAKSLRQAEQCWKQGADPVEFAKDHREFARAFESFPQDADKLYPNWRAKLKPQAA
notes: form II rubisco (CbbM) of Rhodopseudomonas palustris; gene synthesized by Genscript, cloned in pHue; also called RpM; source: E. coli BL21 (DE3), purified (Ni-NTA, ubiquitin cleaved, Mono Q, Superdex 200); not shown: His6, N-terminal, cleaved; ubiquitin, N-terminal, cleaved
Consider B6, for which, in data set [1], the “stoichiometry N” value came to 6 subunits in the oligomer.

B7: Acidithiobacillus ferrooxidans CbbO1 (natural protein, UniProt B7JA27 1-772, looked up)
chain: MKHLEDYAELLQAFGEGSQAILQSKWQEATRVFSPSGLDQYLDGAMGLRSLGKGDGLVSSYLDAAPHIAREVGEDAVWELVGAVMKMASKTSGAVLEAVVSTSPTAANRLADPELFKSYLGMLDRLLAQVPRALRPMLENIDQLFGYLTLGGLRRWALWGAHAHRTDFEAQIAYFSLKSPEALAMLQQERKGTLFVDIQRRLRMYLRALWGRDFFLRPTSGDFEDREGYRPYIEGIFIHLPDAYDDWEDIDGMTRYRAVAVHAAAHVAYMRKAISAEALTPEQMAVIGLFEDARVEALAMRAFPGIRAIWLPFHTAVAGPVASMGHLFSRLARAIIDPDYVDDNAWVQEGRRVFMEAEARWDDPQLSWDLGVHLADRLRNQRVSYHARTDIPDILYRDDNRYIWEFEEIDWEHETTILPGAQVRKYVNVMEMVNEVDTELAGDDAQEVWVLQSELFPYEDMGLSYNQMEGKEPVSDPFHYPEWDYQIQASRPLWATVLERRPRLGDARVVREVLEKYKPVSSRLRYLIEALQPQGVQRLRKQEDGDEIDVEAAVRALVDIRMGLAPDTRIHMRSLRKVRDLGVLVLMDLSESTNDKVRGSEDSILQLTRDATSLLADAMNRIGDPFAIHGFHSDGRHDVAYYRFKDFDEAYSEEAMGRIAGMTGKFSTRMGAALRHAGHHLRHQRQSRKLLLVITDGEPADIDVRDPQYLRHDARRAVEDLGRDGVITYCLSLDPHADEYVSRIFGARNYQVIDHVERLPERLPILYAGLTR
notes: VWA-domain protein CbbO1 of Acidithiobacillus ferrooxidans ATCC 23270, locus AFE_3054; insoluble unless co-expressed with CbbQ1; also called AfCbbO1; source: E. coli, co-expressed with CbbQ1, co-purified (Ni-NTA, ubiquitin cleaved, MonoQ, Superdex 200); not shown: His6, N-terminal, cleaved; ubiquitin, N-terminal, cleaved
As to B7, the results for the “stoichiometry N” value in data set [5] and in data set [6] were 1 CbbO subunit per 6 CbbQ subunits and 1 CbbO subunit per CbbQ hexamer, respectively.

B8: Acidithiobacillus ferrooxidans form I rubisco large subunit (natural protein, UniProt B7JA24 1-473, looked up)
chain: MAVKTYNAGVKDYRNTYWEPDYSVKDTDILAVFKITPQAGVDREEAAAAVAAESSTGTWTTVWTDLLTDLDYYKGRAYRIEDVPGDDTCFYAFIAYPIDLFEEGSVVNVFTSLVGNVFGFKAVRALRLEDVRFPIAYVKTCGGPPHGIQVERDIMNKYGRPLLGCTIKPKLGLSAKNYGRACYEGLRGGLDFTKDDENVNSQPFMRWRQRFDFVMEAIQKAEAETGERKGHYLNVTAPTPEEMYKRAEYAKEIGAPIIMHDYITGGFCANTGLANWCRDNGMLLHIHRAMHAVLDRNPHHGIHFRVLTKILRLSGGDHLHSGTVVGKLEGDREATLGWIDIMRDRFIKEDRSRGIFFDQDWGSMPGVMPVASGGIHVWHMPALVTIFGDDSVLQFGGGTLGHPWGNAAGAAANRVALEACVEARNRGVAIEKEGKAVLTEAAKHSPELKIAMETWKEIKFEFDTVDKLDVAHK
notes: form I rubisco large subunit (CbbL) of Acidithiobacillus ferrooxidans ATCC 23270, locus AFE_3051; gene amplified from genomic DNA; cbbL and cbbS were amplified together and cloned between NdeI and HindIII of pET30b; no tag is mentioned; also called AfL; CbbL; source: E. coli BL21, co-expressed with the small subunit from pET30bAfcbbLS, purified (Source30Q, Superdex 200)
Take B8: the “stoichiometry N” value in data set [1] is 8 large subunits in the complex.

As to B9, the “stoichiometry N” value in data set [1] is 6 CbbQ subunits in the complex.

The values are drawn from publication PMC4660213, “Identification and characterization of multiple rubisco activases in chemoautotrophic bacteria” (Nature Communications, 2015).
